# Laboratory results from the Human Domainome abundance scans (Beltran et al. 2025).
# ± gives the uncertainty stated by the source.
# B1: Tudor domain-containing protein 3, residues 554 to 611; numbered along this chain, Q9H7E2 (parent)
# chain: KMWKPGDECFALYWEDNKFYRAEVEALHSSGMTAVVKFIDYGNYEEVLLSNIKPIQTE
# Variants of: B1
# Test: abundance fitness (aPCA) (normalised: wild type 0, dead -1); higher = more abundant; growth selection in yeast, the domain comes from the species named
# Conditions: Homo sapiens
row,Variant,abundance fitness
1,F10Q,-0.006 ± 0.099
2,F10C,-0.2 ± 0.092
3,F10K,-0.32 ± 0.11
4,F10H,-0.255 ± 0.11
5,F10S,-0.234 ± 0.064
6,F10G,-0.84 ± 0.077
7,F10V,-0.128 ± 0.064
8,F10A,-0.178 ± 0.072
9,F10I,-0.076 ± 0.1
10,F10D,-0.267 ± 0.1
11,F10M,0.068 ± 0.085
12,F10Y,0.026 ± 0.088
13,F10P,-0.923 ± 0.15
14,F10L,0.084 ± 0.064
15,F10T,-0.383 ± 0.087
16,F10E,0.023 ± 0.081
17,F10W,-0.051 ± 0.079
18,E23A,-0.257 ± 0.071
19,E23F,-0.1 ± 0.11
20,E23Q,-0.103 ± 0.11
21,E23R,0.032 ± 0.057
22,E23P,-0.838 ± 0.11
23,E23H,0.071 ± 0.088
24,E23N,0.059 ± 0.097

row,Variant,abundance fitness
1,E23I,0.143 ± 0.1
2,E23G,-0.596 ± 0.075
3,E23L,-0.225 ± 0.062
4,E23W,-0.176 ± 0.08
5,E23S,0.013 ± 0.059
6,E23C,-0.034 ± 0.079
7,E23M,-0.005 ± 0.1
8,E23T,-0.004 ± 0.07
9,E15I,-0.156 ± 0.11
10,E15L,-0.064 ± 0.06
11,E15S,-0.114 ± 0.06
12,E15R,0.022 ± 0.056
13,E15G,-0.142 ± 0.062
14,E15N,-0.105 ± 0.1
15,E15D,-0.336 ± 0.12
16,E15P,-0.185 ± 0.093
17,E15W,-0.27 ± 0.074
18,E15Q,-0.111 ± 0.11
19,E15F,-0.149 ± 0.1
20,E15C,-0.21 ± 0.098
21,E15T,-0.139 ± 0.073
22,E15H,-0.251 ± 0.11
23,E15Y,0.099 ± 0.11
24,E15K,0.081 ± 0.082

row,Variant,abundance fitness
1,E15V,-0.026 ± 0.061
2,L27S,-0.749 ± 0.1
3,L27C,-0.183 ± 0.087
4,L27R,-0.872 ± 0.078
5,L27E,-0.913 ± 0.11
6,L27T,-0.301 ± 0.12
7,L27W,-0.76 ± 0.1
8,L27Y,-0.911 ± 0.18
9,L27I,-0.072 ± 0.11
10,L27N,-0.879 ± 0.18
11,L27M,-0.181 ± 0.11
12,L27V,-0.064 ± 0.067
13,L27H,-0.675 ± 0.18
14,L27P,-0.973 ± 0.17
15,L27G,-0.974 ± 0.076
16,L27A,-0.651 ± 0.1
17,L27Q,-1.13 ± 0.2
18,L27D,-0.871 ± 0.14
19,L27F,-0.716 ± 0.14
20,S29Q,-0.11 ± 0.1
21,S29A,0.114 ± 0.075
22,S29I,-0.05 ± 0.097
23,S29F,-0.186 ± 0.1
24,S29E,-0.008 ± 0.081

row,Variant,abundance fitness
1,S29C,-0.116 ± 0.079
2,S29M,-0.009 ± 0.084
3,S29H,-0.05 ± 0.14
4,S29G,-0.107 ± 0.057
5,S29P,-0.03 ± 0.088
6,S29N,-0.062 ± 0.12
7,S29D,0.014 ± 0.097
8,S29L,-0.125 ± 0.06
9,S29K,-0.028 ± 0.082
10,Y13M,-0.287 ± 0.1
11,Y13A,-0.02 ± 0.069
12,Y13W,-0.06 ± 0.075
13,Y13R,0.069 ± 0.055
14,Y13D,-0.345 ± 0.15
15,Y13N,0 ± 0.1
16,Y13C,0.068 ± 0.1
17,Y13Q,-0.292 ± 0.092
18,Y13I,-0.975 ± 0.24
19,Y13P,-0.902 ± 0.13
20,Y13K,-0.028 ± 0.093
21,Y13G,-0.252 ± 0.061
22,Y13F,0.065 ± 0.11
23,Y13V,-0.897 ± 0.1
24,Y13L,-0.15 ± 0.072

row,Variant,abundance fitness
1,Y13T,-0.323 ± 0.089
2,N17G,-0.105 ± 0.059
3,N17W,-0.716 ± 0.13
4,N17M,-0.191 ± 0.098
5,N17F,-0.65 ± 0.23
6,N17Y,-0.604 ± 0.2
7,N17E,-0.021 ± 0.08
8,N17D,0.034 ± 0.1
9,N17V,-0.55 ± 0.074
10,N17S,-0.117 ± 0.072
11,N17T,-0.366 ± 0.084
12,N17C,-0.349 ± 0.16
13,N17Q,-0.1 ± 0.092
14,N17R,-0.084 ± 0.068
15,N17H,-0.29 ± 0.15
16,N17I,-0.742 ± 0.16
17,E25C,-0.019 ± 0.097
18,E25D,0.027 ± 0.14
19,E25Y,0.046 ± 0.12
20,E25F,-0.041 ± 0.098
21,E25H,-0.039 ± 0.1
22,E25N,-0.111 ± 0.13
23,E25I,0.011 ± 0.11
24,E25A,0.062 ± 0.079

row,Variant,abundance fitness
1,E25L,-0.038 ± 0.06
2,E25S,0.022 ± 0.06
3,E25R,-0.019 ± 0.054
4,E25G,-0.315 ± 0.063
5,E25Q,0.077 ± 0.075
6,E25M,-0.025 ± 0.078
7,E25V,0.013 ± 0.063
8,E25K,0.051 ± 0.1
9,E25W,-0.101 ± 0.074
10,E25P,-0.659 ± 0.11
11,V24L,-0.215 ± 0.059
12,V24D,-1.03 ± 0.28
13,V24G,-0.994 ± 0.094
14,V24W,-0.811 ± 0.093
15,V24M,-0.726 ± 0.1
16,V24K,-0.849 ± 0.17
17,V24H,-0.847 ± 0.18
18,V24C,-0.949 ± 0.13
19,V24F,-0.22 ± 0.096
20,V24A,-0.939 ± 0.13
21,V24E,-1.04 ± 0.19
22,V24P,-0.906 ± 0.11
23,V24I,-0.027 ± 0.13
24,V24S,-0.751 ± 0.075

row,Variant,abundance fitness
1,V24T,-0.863 ± 0.11
2,V24N,-0.825 ± 0.15
3,V24Q,-0.986 ± 0.12
4,V24Y,-0.814 ± 0.15
5,V24R,-0.773 ± 0.061
6,F19Y,-0.123 ± 0.14
7,F19L,-0.472 ± 0.08
8,F19G,-0.925 ± 0.077
9,F19S,-0.703 ± 0.086
10,F19Q,-0.599 ± 0.12
11,F19C,-1.02 ± 0.14
12,F19I,-0.649 ± 0.27
13,F19T,-0.747 ± 0.12
14,F19M,-0.386 ± 0.13
15,F19V,-0.756 ± 0.082
16,F19E,-0.706 ± 0.099
17,F19A,-0.831 ± 0.087
18,F19D,-0.881 ± 0.15
19,F19H,-0.457 ± 0.17
20,F19W,-0.008 ± 0.081
21,F19K,-0.85 ± 0.16
22,F19P,-0.81 ± 0.13
23,R21E,-0.301 ± 0.099
